# Test: yeast display, Sf9 membrane polyspecificity reagent, FACS + sequencing; frameworks hold sequencing errors
# Method in brief: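 Synthetic nanobody libraries on Saccharomyces cerevisiae BJ5465 were galactose-induced for 36–48 hours, stained 1 hour at 4 °C with 10% biotinylated, detergent-solubilized Sf9 membrane reagent and enriched on streptavidin microbeads. FACS then separated cells into low and high (top ~1%) gates by anti-HA (expression) and streptavidin (reagent binding) fluorescence. Genes were colony-PCR amplified, MiSeq 2 × 250 sequenced and CDR-length filtered. A clone's polyreactivity label is that of its gate of origin.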
row,Sequence,polyreactivity (PSR sort gate)
1,QVQLVESGGGLVQAGGSLRLSCDASGNTFSRYAMGWYRQAHGKERELVAAITSSGGSTYYADSVKGRFTISRDNAKNTVYLQMNSLKPEDTAVYYCAATSYYTREHYYYWGQGTQVTVSS,high polyreactivity
2,QVQLVESGGGLVQAGGSLRLSCDASGNTFVRYAMGWFRQAPGKERELVAGISASGGSTSYADSVKGRFTISRDNAKNTVYLQMNSLKPEDTAVYYCARNYWLYSSSYDSWGQGTQVTVSS,high polyreactivity
3,QVQLVESGGGLVQAGGSLRLSCDASGNTSSYYTMGWYRQAPGKERELGARISNRGTNTYYAESVKGRVTISRDNAKNTVYLQMNSLKPEDTAVYYCAALYWFYVYPFTEYDYWGQGTQVTVSS,low polyreactivity
4,QVQLVESGGGLVQAGGSLRLSCDASGRHFKRYDMGWYRQAPGKERELVAAISWSGTSTHYADSVKGRLTISRDNAKNTVYLQMNSLKPEDTAVYYCAAYWFNTSYPGRYDYWGQGTQVTVSS,high polyreactivity
5,QVQLVESGGGLVQAGGSLRLSCDASGRIFFNTMGWYRQAPGKERELVAAISSGGSTSYADSVKGRFTISRDNAKNTVYLQMNSLKPEDTAVYYCADLKLYIYDYWGQGTQVTVSS,high polyreactivity
6,QVQLVESGGGLVQAGGSLRLSCDASGRIFGLYDMGWYRQAPGKERELVAAISRGGGSTYYADSVKGRFTISRDNAKNTVYLQMNSLKPEDTAVYYCATGLGYFSRLDYWGQGTQVTVSS,low polyreactivity
7,QVQLVESGGGLVQAGGSLRLSCDASGRIFGYTMGWYIQAPGKERELVAAISKSGGSTYYADSVKGRFTISRDNAKNTVYLQMNSLKPEDTAVYYCNKPQRILYDYWGQGTQVTVSS,high polyreactivity
8,QVQLVESGGGLVQAGGSLRLSCDASGRIFHYNSMGWYRQAPGKERELVAAISTGGSTNYADSVKGRFTISRDNAKNTVYLQMNSLKPEDTAVYYCAADHPVTYPTSKFDYWGQGTQVTVSS,low polyreactivity
9,QVQLVESGGGLVQAGGSLRLSCDASGRIFNYYAMGWYRQAPGKERELVAAITWNGGNTYYADSVKGRFTISRDNAKNTVYLQMNSLKPEDTAVYYCNAYPWYPGDYWGQGTQVTVSS,high polyreactivity
10,QVQLVESGGGLVQAGGSLRLSCDASGRIFYNYAMGWYRQEPGKERELVAAISSSGGRTYYADSVKGRFTISRDKAKNTVYLQMNSLKPEDTAVYYCAADFHDASRPYGSWGQGTQVTVSS,low polyreactivity
11,QVQLVESGGGLVQAGGSLRLSCDASGRSFYPYSMGWYRQAPGKERELVAAIDWSDGSTYYADSVKGRFTISRDNAKNTFYLQMNSLKPEDTAVYYCSAEDYNYWSYDYWGQGTQVTVSS,low polyreactivity
12,QVQLVESGGGLVQAGGSLRLSCDASGRTFVVNAMGWYRQAPGKERELVAAITRRGGITYYADSVKGRFTISRDNAKNTVYLQMNSLKPEDTAVYYCAADRSYYPDTRTTYGYNYWGQGTQVTVSS,low polyreactivity
13,QVQLVESGGGLVQAGGSLRLSCDASGRTFYFYVMGWYRQAPGKERELVARISWSGGSTYYADSVKGRFTISRDNAKNTVYLQMNSLKPEDTAVYYCARQYKYPSSGEYDSWGQGTQVTVSS,low polyreactivity
14,QVQLVESGGGLVQAGGSLRLSCDASGSIFAKNAMGWYRQAPGKERELVAAIDLNGGSTYYADSVKGRFTISRDTAKNTVYLQMNILKPEDTAVYYCDVYYGHSCVIRSSPEYDSWGQGTQVTVSS,low polyreactivity
15,QVQLVESGGGLVQAGGSLRLSCDASGSIFGRNAMGWYRQAPGKERELVAAISWRGGRTYYADSVKGRFTISRDNAKNTVYLQMNSLKPEDTAVYYCAATSGRPYEYGYWGQGTQVTVSS,high polyreactivity
16,QVQLVESGGGLVQAGGSLRLSCDASGSIFLVYAMGWYRQAPGKERELVAAITSGGSTNYADSVKGRFTISRDNAKNTVYFQMNSLKPEDTAVYNCAAERGDTAYRKYDYWGQGTQVTVSS,low polyreactivity
17,QVQLVESGGGLVQAGGSLRLSCDASGSIFMYNAMGWYRQAPGKERELVAAISSSSDRTYYADSVKGRFTISRDNAKKTVYLQMNSLKPEDTAVYYCNVVYIGWRKYEYWGQGTQVTVSS,high polyreactivity
18,QVQLVESGGGLVQAGGSLRLSCDASGSIFRAYAMRWYRQAPGKERELVAAISSSSGRTYYADSVKGRFTISRDNAKTTVYLQLNSLKPEDTAVYYCAVTASTLVTSATYDYWGQGTQVTLSS,low polyreactivity
19,QVQLVESGGGLVQAGGSLRLSCDASGSIFRLYAMGWYRQAPGKERELVARITRRCGDTYADSVKGRFTISRDNAKNTVYLQMNSLKREDTAVYYCAADGYHRYPGSSGYGYWGQGTQVTVSS,high polyreactivity
20,QVQLVESGGGLVQAGGSLRLSCDASGSIFYGYTMGWYRQDPGKERELVAAIRKSGGSTNYADSVKGRFTISRDNAKNTVYLQMNSLKPEDTAVYYCAASYYRGRGYYWGQGTQVTVSS,high polyreactivity
21,QVQLVESGGGLVQAGGSLRLSCDASGSIFYSKAMGWYRQAHGKERELVAAITVGGGRTYYADSVKGRFTISRDNAKNTVYLQMNSLNPEDTAVYYCAADSHASTYDYWGQGTQVTVSS,low polyreactivity

row,Sequence,polyreactivity (PSR sort gate)
1,QVQLVESGGGLVQAGGSLRLSCDASGSIVRYNAMGWYRQAPGKERELVADISTSGGSTYYADSVKGRFTISRDNANNTVYVQMNSLKPEDTAVYYCAKPWYSSGFDYWGQGTQVTVSS,high polyreactivity
2,QVQLVESGGGLVQAGGSLRLSCDASGSIYRLNAMGWYRQAPGKEMELVAAITWSDSSTYYADSVKGRFTISRDNAKYTVYLQMNSLKPEDTAVYYCAADPQSYKYDYWGQGTQVTVSS,low polyreactivity
3,QVQLVESGGGLVQAGGSLRLSCDASGSTFDVNTMGWYRQAPGKERELVAAIRLRGGSTYYADSVKGRFTISRDNAKNTVYLLMISLKPEDTAVYYCAADYTLIYDYCGQGTQVTVSS,low polyreactivity
4,QVQLVESGGGLVQAGGSLRLSCDASGSTFFANAMGWYRQAPGKERELVAAITIGNTNYADSVKGRFTISRDNAKYTVYLQMNSLKPEDTAVYYCNASHVSHYRARDYWGQGTQVTVSS,low polyreactivity
5,QVQLVESGGGLVQAGGSLRLSCDASGSTFFTYAMGWYRQSPGKERELVAAITRGGSTYYADSVKGRFTISRDNAKHTVYLQMNSLKPEDTAVYYCNVDPFTRQNHGNYWGQGTQVTVSS,high polyreactivity
6,QVQLVESGGGLVQAGGSLRLSCDASGSTFGYYTMVWYRPSPGKERELVAAISSSGGSTYYADSVKGRFTISRDNAKNTVYLQMYSLKPEDTAVYYCNAEYGFYRAGSRGEYWGQGTQVTVSS,low polyreactivity
7,QVQLVESGGGLVQAGGSLRLSCDASGSTFRWYTMGWYRPAPGKEREVVATISRSGGSTYNADSVKGRFTISRDNAKNTVYLQMNSLKPEDTAVYYCNKLGVSTHSYKYYYWGQGTQVTVSS,high polyreactivity
8,QVQLVESGGGLVQAGGSLRLSCDASGSTFSYYTMGWYRQAPGKERELVAAITGSGGRTYYADSVKGRFTISRDNAKNTVYLQMNSLKPEDSAVYYCAARLYTAADHYNYWGQGTQVTVSS,high polyreactivity
9,QVQLVESGGGLVQAGGSLRLSCDASGSTFYPYVMGWYRQAPGKERELVARITWSGGSTYYADSVKGRFTISRDNAKNTVYLQMNSLKPEDTAVYYCAALRYVNLLAQAYEYWGQGTQVTVSS,high polyreactivity
10,QVQLVESGGGLVQAGGSLRLSCDASGSTIDWYAMGWYRQAPGKERELVAGITISAGRTYYADSVKGRFTISRDNAKNTVYLQMNSLKPEDTAVYYCAADVYYYLDMDHWGQGTQVTVSS,low polyreactivity
11,QVQLVESGGGLVQAGGSLRLSCDASGSTIPTYAMGWYRQAPGKERELVASISVTTGSTYYADSVKGRFTISRDNAKNTVYLNMKSLKPEDTAVYFCAKRTYSRKFRGSYNYWGQGTEVTVSS,high polyreactivity
12,QVQLVESGGGLVQAGGSLRLSCGASGFIFKSYAMGWYRQATGKERELVAAFSRSGSSTYYADSVMGRFTISRDNAKNTVYLQMNSLKPEDTAVYYCAKKGYRFIHFGYDYWGQGTQVTVSS,high polyreactivity
13,QVQLVESGGGLVQAGGSLRLSCGASGFIFLKNAMGWYRQAPGKARELVAAITRSGDITYYADSVKGRFTISRDNAKNTVYLKMNSLKPEDTAVYYCATTREFPSYDSWGQGTQVTVSS,low polyreactivity
14,QVQLVESGGGLVQAGGSLRLSCGASGFTFPYYAMGWYIQAPGKERELVAAITSSGGSTYYADSVKGRFTISRDNAKNTVYLQMNSLNPEDTAVYYCAVDAYYYKWYDYWGQGTQVTVSS,high polyreactivity
15,QVQLVESGGGLVQAGGSLRLSCGASGFTFYSYAMGWYRPARGKARELVATITKSGGNTYYADSVKGRFTISRDNAKNTVYLQMTSLKPVDTAVYYCAAATKVGRYKRKTVSYYYWCQGTQVTVSS,high polyreactivity
16,QVQLVESGGGLVQAGGSLRLSCGASGLTFAYYAMRWYRQAPGKERELVAAISSSGRSTYYADSVKGRFTISRDNAKNTVYLQMNSLTEEDTAVSYCDKVGPWYYWERDYWGQCTQVTVSS,high polyreactivity
17,QVQLVESGGGLVQAGGSLRLSCGASGNTINVNTMGWYRQGPGKERELVAAINSGDNTNYADSVKGRFTISRDNAKNTVYLQMNSLNPVDTAVYSCAAQDYARGVVPGRRAIGYWGQCTQVTVSS,high polyreactivity
18,QVQLVESGGGLVQAGGSLRLSCGASGRIFRGYAMGWYRQGPGKERELVAAISRRGGSTYYADSVKGRFTISRDNAKNTVYLQMNSLKPVDTAVYYCNADGVHYVAYAGGYWGQGTQVTVSS,high polyreactivity
19,QVQLVESGGGLVQAGGSLRLSCGASGRSSYVYAMGWYRQAPGKERELVAAITSSGGSTYYADSVKGRFTISRDNAKNTVYLQMNSLKPEDTAVYYCAAETYPVWGVAFYYWGQGTQVTVSS,high polyreactivity
20,QVQLVESGGGLVQAGGSLRLSCGASGRTFKLYAMGWYRQAPAKERELVATIRRSGTRTYADSVKGRFTISRDNAKNTVYLQINSLKQEDTAVYYCAATTYAYVYHRYDYWGQGTQVTVSS,high polyreactivity
